Measured values reported in patent publication US7410949.

Columns and labels:
Assay in all cases: cell-based or functional assay
Y1R = target: Y1R
[1] = target: T1, human NPY2 receptor (human) (UniProt P49146)
T1 sequence (looked up): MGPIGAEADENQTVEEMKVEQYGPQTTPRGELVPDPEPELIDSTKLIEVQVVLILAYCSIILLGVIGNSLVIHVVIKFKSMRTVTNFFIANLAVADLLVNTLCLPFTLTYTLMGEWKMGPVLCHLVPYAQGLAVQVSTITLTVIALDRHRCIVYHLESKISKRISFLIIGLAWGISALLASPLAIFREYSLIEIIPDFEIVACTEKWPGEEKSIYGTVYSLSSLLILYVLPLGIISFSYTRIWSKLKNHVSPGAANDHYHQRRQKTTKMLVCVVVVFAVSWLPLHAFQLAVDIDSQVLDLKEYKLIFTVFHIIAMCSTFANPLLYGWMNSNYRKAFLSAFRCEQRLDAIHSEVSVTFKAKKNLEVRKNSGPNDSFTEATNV

Y4R = target: Y4R

Sequence of Y1R (P25929 whole entry): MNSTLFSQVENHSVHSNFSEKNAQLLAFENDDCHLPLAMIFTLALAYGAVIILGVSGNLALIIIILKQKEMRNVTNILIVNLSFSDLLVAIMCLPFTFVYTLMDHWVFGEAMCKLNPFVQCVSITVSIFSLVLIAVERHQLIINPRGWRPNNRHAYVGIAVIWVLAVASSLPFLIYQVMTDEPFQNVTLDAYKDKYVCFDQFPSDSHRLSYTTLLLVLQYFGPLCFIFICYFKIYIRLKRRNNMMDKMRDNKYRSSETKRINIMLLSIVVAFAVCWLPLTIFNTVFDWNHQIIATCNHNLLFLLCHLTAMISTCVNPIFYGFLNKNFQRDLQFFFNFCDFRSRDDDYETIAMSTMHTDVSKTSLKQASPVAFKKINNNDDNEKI

Ac-1,1-Aic-Nle-Pqa-Arg-His-Tyr-Leu-Asn-Leu-Val-Thr-Arg-Gln-Arg-Tyr-NH2 (Pk A) (peptide)
Y1R EC50(nM) FLIPR (Y1R): 1650 nM
Y2R EC50(nM) FLIPR [1]: 8.8 nM
Y2R IC50(nM) cAMP [1]: 0.64 nM
Y4R EC50(nM) FLIPR (Y4R): > 5000 nM

Ac-1,1-Aic-Nle-Pqa-Arg-His-Tyr-Leu-Asn-Leu-Val-Thr-Arg-Gln-Arg-Tyr-NH2 (Pk B) (peptide)
Y1R EC50(nM) FLIPR (Y1R): 2650 nM
Y2R EC50(nM) FLIPR [1]: 6 nM
Y2R IC50(nM) cAMP [1]: 1 nM
Y4R EC50(nM) FLIPR (Y4R): > 5000 nM

Ac-2,2-Aic-Nle-Pqa-Arg-His-Tyr-Leu-Asn-Leu-Val-Thr-Arg-Gln-Arg-Tyr-NH2 (peptide)
Y1R EC50(nM) FLIPR (Y1R): > 5000 nM
Y4R EC50(nM) FLIPR (Y4R): > 5000 nM

Ac-Ach-Nle-Pqa-Arg-His-Tyr-Leu-Asn-Leu-Val-Thr-Arg-Gln-Arg-Tyr-NH2 (peptide)
Y1R EC50(nM) FLIPR (Y1R): > 5000 nM
Y4R EC50(nM) FLIPR (Y4R): > 5000 nM

Ac-Acp-Nle-Pqa-Arg-His-Tyr-Leu-Asn-Leu-Val-Thr-Arg-Gln-Arg-Tyr-NH2 (peptide)
Y1R EC50(nM) FLIPR (Y1R): > 5000 nM
Y4R EC50(nM) FLIPR (Y4R): > 5000 nM

Ac-Aib-Nle-Pqa-Arg-His-Tyr-Leu-Asn-Leu-Val-Thr-Arg-Gln-Arg-Tyr-NH2 (peptide)
Y4R EC50(nM) FLIPR (Y4R): > 5000 nM
